Here are results for eleven molecules from patent publication US12686723 (SHANGHAI ACEMAB, dated 2026).

Changes are numbered by the printed parent chain.

T1: human BCMA antigen (6His tag, product number CC28, Novoprotein) (human, UniProt Q02223 1-54)
T1 construct: Bought reagent; not shown: 6His tag
T1 sequence (looked up): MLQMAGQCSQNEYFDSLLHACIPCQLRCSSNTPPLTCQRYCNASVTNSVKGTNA

T2: commercial recombinant human BCMA protein (Fc tag, Cat. No. CS79, Novoprotein) (human, UniProt Q02223 1-54)
T2 construct: Bought reagent; also called Human recombinant BCMA protein; BCMA antigen (Novoprotein cat: CS79); not shown: Fc tag
T2 sequence (looked up): T1 sequence (looked up)

B1: anti-human BCMA monoclonal antibody 31F5 (antibody, V domains shown)
VH: EVQLVESGGGLVQPGRSLRLSCAASGFTFDDYAMHWVRQAPGKGLEWVSGISWNSDNIAYADSVKGRFTISRDNAENSLYLQMNSLRTEDTAIYYCAKVAAATFDYRGQGTLVTVSS
VL: DIQMTQSPSSLSASVGDRVTITCRASQSISSYLNWYQQKPGKAPKLLIFAASSLQSGVPSRFSGSGSGTDFTLTISSLQPEDFATYSCQQSFSIPFTFGPGTKVDIKR
notes: Tested as hybridoma supernatant (ELISA) or Protein G-purified hybridoma antibody (SPR); constant region of the tested hybridoma material is uncertain (anti-mouse IgG secondary used)
B2: anti-human BCMA monoclonal antibody 20A2 (antibody, human IgG1, kappa, V domains shown)
VH: QIQLVQSGAEVKKPGASVKVSCKASGYTFTAYYLHWVRQSPGHGLEWMGRIYPNSGDTNYAQKFQGRVTMTRDTSINTAYMELSRLRSDDTALYYCARGFNWNYEGGFDIWGQGTMVTVSS
VL: DVVMTQSPLSLSVTLGQPASISCRSGQSLVYSDGNTYLNWFQQRPGQSPRRLIYKLSSRDSGVPDRFSGSGSGTDFTLKISRMEAEDVGVYYCMQRTHWPPTFGQGTKVEIKR
notes: as for B1
B3: anti-human BCMA monoclonal antibody 11G1 (antibody, V domains shown)
VH: EVQLVESGGGLVQPGRSLRLSCEASGFTFDDYAMHWVRQPPGKGLEWVSGISWNSDNIGYADSVKGRFTISRDNAKNSLYLQMNSLRAEDTALYYCAKIQSGSSFDYWGQGTLVTVSS
VL: DIQMTQSPSSLSASVGDRVTITCRASQSIINFLNWYQQKPGKAPKLLIYGASNLQSGVPSRFSGSGSGTDFTLTISSLQPEDFATYCCQQSSSIPLTFGGGTKVEIKR
notes: as for B1
B4: anti-human BCMA monoclonal antibody 11B10 (antibody, human IgG1, kappa, V domains shown)
VH: QVQLVQSGAEVKKPGASVKVSCKASGYTFTSYAMHWVRQAPGQRLEWMGWINTGNGNTKYSQKFQGRVTITRDTSASTAYMELSSLRSEDTAVYYCARGGSITGNIFYYYYYMDVWGKGTTVTVAS
VL: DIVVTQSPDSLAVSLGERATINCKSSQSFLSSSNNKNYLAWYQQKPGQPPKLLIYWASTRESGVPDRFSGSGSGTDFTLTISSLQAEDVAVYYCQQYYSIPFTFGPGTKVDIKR
notes: as for B1
B5: anti-human BCMA monoclonal antibody 15A7 (antibody, human IgG1, kappa, V domains shown)
VH: EVQLVESGGGLVQPGGSLRLSCEASGFTFDDCAMHWVRQTPGKGLEWVSGISWNSDTMGYADSVKGRFIISRDNAKNSLYLQMNSLRVEDTALYHCTRVRAAVFDYWGQGVLVTVSS
VL: DIHMTQSPSSLSASVGDRVTITCRASQSISSYLNWFQQKPGKAPTVLIYAASSLQSGVSSRFSGRGSGADFTLTISSLQPEDFASYFCQQSFSPLYIFGQGTKVEIKR
notes: as for B1
B6: anti-human BCMA monoclonal antibody 23C4 (antibody, human IgG1, kappa, V domains shown)
VH: EVQLVESGGGLVQPGRSLRLSCAASGFTFADHAMHWVRQAPGKGLEWVSGISWNSDHIGYADSVKGRFTISRDNAKNSLYLQMNSLRPEDTALYYCAKDIFSPTGDGYWGQGTLVTVSS
VL: DIQMTQSPSSLSASVGDRVTITCRASQDIRNNLGWFQQKPGKTPKRLIYAASSLQSGVPSRFSGSGSGTEFTLIISSLQPEDFATYYCLHHNSYPPTFGQGTKVEIKR
notes: as for B1
B7: anti-human BCMA monoclonal antibody 27A7 (antibody, human IgG1, kappa, V domains shown)
VH: B6 VH with A30D, D56V, P88A, G107D
VL: B6 VL with I74T
notes: as for B1
B8: anti-human BCMA monoclonal antibody 20A9 (antibody, human IgG1, kappa, V domains shown)
VH: QVQLVQSGAEVKKPGASAKVSCKASGYTFTSYAMQWVRQAPGQRLEWMGWINAGNGNIKYSQKFQGRVTITRDTSASTAYMELSSLRSEDTAVYYCARGGRLELDVYYYFYYMDVWGKGTTVTVSS
VL: DIVMSQSPDSLAVSLGERTTINCKSSQSVLHSSQNKNYLAWYQQKPGQPPNPLIHWASTRESGVPDRFSGSGSGTDFTLTISSLQAEDVAVYYCQQYYRVPFTFGPGTKVDIKR
notes: as for B1
B9: anti-human BCMA monoclonal antibody 15H6 (antibody, human IgG1, kappa, V domains shown)
VH: B8 VH with I58T, V106I
VL: B8 VL
notes: as for B1
B10: anti-human BCMA monoclonal antibody 18D10 (antibody, human IgG1, kappa, V domains shown)
VH: EVRLVESGGGLVQPGRSLRLSCAASGFTSNDYAMHWVRQAPGRGLEWVSGISWNSDSIGYADSVKGRFTISRDNAKNSLYLQMNSLRTEDTALYYCATVVSAYFDYWGQGTLVTVSS
VL: DIQMTQSPSSLSASVGDRVTITCRTSQSISTYLNWYQQKPGKAPKLLIYAASSLKSGVPSRFSGSGSGTDFTLTISSLQPEDFATYFCQGSYIIPLTFGGGTRVEIKR
notes: as for B1
B11: anti-human BCMA monoclonal antibody 7E11 (antibody, human IgG1, kappa, V domains shown)
VH: EVQLVESGGGLVQPGGSLRLSCAASGFTFSYYDMHWVRQGTGKGLEWVSGIGTSGDTYYPDSVKGRFTISRENAKNSLNLQMNSLRDGDTAMYYCARGPYYYNSSGYYSYDALDIWGQGTMVTVTS
VL: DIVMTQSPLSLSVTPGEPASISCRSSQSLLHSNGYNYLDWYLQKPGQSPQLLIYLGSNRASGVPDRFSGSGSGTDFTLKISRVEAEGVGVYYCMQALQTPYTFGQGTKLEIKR
notes: Tested as hybridoma supernatant (ELISA) or Protein G-purified hybridoma antibody (SPR)

The first test addresses T1, human BCMA antigen (6His tag, product …). Kind of test: SPR, Biacore T200, BCMA-6His on chip, antibody as analyte. The text has this:
Example 8: Affinity Analysis of Anti-Human BCMA Monoclonal Antibody Binding to Human BCMA The kit, consumables and instruments used in this example were purchased from GE Healthcare; According to the instructions provided, human BCMA antigen (6His tag, product number CC28, Novoprotein) is conjugated to the chip surface, and then HBS-EP+ buffer solution is double-diluted to prepare different concentrations of the antibody to be analyzed, and meanwhile set the 0 concentration point and the quality control concentration point; According to the manufacturer's standard setting procedure of Biacore T200, the flow cell that captures ligand is used as the detection channel, the flow cell of un-captured ligand as the reference channel, and the HBS-EP+ buffer solution as the mobile phase, and different concentrations of the antibody solution to be analyzed are injected respectively; The SPR signal is collected by the Biacore T200 Control software, and then the data is processed by the Biacore T200 Evaluation analysis software; Finally, the Ka, Kd and KD values are calculated for the kinetic analysis or steady-state analysis of the obtained kinetic curves, and the results are shown in Table. 2.
Molecule B1 displayed a Kd of 0.0483 nM, a dissociation rate constant (koff) of 2.78e-05 s⁻¹ and an on-rate constant (kon) of 576000 M⁻¹ s⁻¹.

In turn, B2 yielded a Kd of 0.0656 nM, a koff of 5.29e-05 s⁻¹ and a kon of 807000 M⁻¹ s⁻¹.

B3 gave a Kd of 0.0345 nM, a koff of 1.63e-05 s⁻¹ and a kon of 472000 M⁻¹ s⁻¹.

Take B4: binding was put at a Kd of 0.253 nM, the koff stood at 0.000269 s⁻¹ and the kon is 1.06e+06 M⁻¹ s⁻¹.

The molecule B5 returned a dissociation constant Kd of 0.125 nM, a koff of 6.02e-05 s⁻¹ and an association rate constant (kon) of 480000 M⁻¹ s⁻¹.

The molecule B6 displayed a Kd of 0.146 nM, a dissociation rate constant (koff) of 7.01e-05 s⁻¹ and an on-rate constant (kon) of 481000 M⁻¹ s⁻¹.

In turn, B7 had a dissociation constant (Kd) of 0.0117 nM, a koff of 7.22e-05 s⁻¹ and a kon of 6.18e+06 M⁻¹ s⁻¹.

In turn, B8 yielded a Kd of 0.0409 nM, a koff of 2.34e-05 s⁻¹ and a kon of 573000 M⁻¹ s⁻¹.

B9 had an equilibrium dissociation constant (Kd) of 0.0885 nM, a koff of 4.28e-05 s⁻¹ and a kon of 483000 M⁻¹ s⁻¹.

Turning to B10, the Kd is 0.0477 nM, the koff stood at 2.43e-05 s⁻¹ and the kon came to 510000 M⁻¹ s⁻¹.

B11 gave a dissociation constant Kd of 0.0504 nM, a koff of 2.57e-05 s⁻¹ and a kon of 510000 M⁻¹ s⁻¹.

Another test addresses T2, commercial recombinant human BCMA …. As to the kind of experiment: ELISA, BCMA-Fc (CS79) coated on plate, hybridoma supernatant diluted 1:50, anti-mouse IgG-HRP. The procedure:
Dilute BCMA antigen (Novoprotein cat: CS79) with PBS to 0.5 ng/μl; add 100 μl/well of antigen to a 96-well flat-bottom ELISA plate (Maxisorp), seal with cling film, and store at 4° C. overnight; pour off the antigen the next day. After that, wash with PBS (200 μl/well), pour off the PBS, pat dry on absorbent paper and add 200 μl of blocking solution to each well and block at room temperature for 2 hours. After blocking, pour off the blocking solution and pat dry on absorbent paper; add 50 μl of HRP-conjugated goat anti-mouse IgG secondary antibody diluted in diluent, place at room temperature for 1 hour, then pour off the liquid and wash 5 times with washing solution (200 μl/well), finally pour off the washing solution and pat dry on absorbent paper; add 50 μl/well of TMB-hydrogen peroxide urea solution substrate solution and place it at room temperature for 3-5 minutes, add 50 μl/well of 0.25M sulfuric acid to stop the reaction, the optical density was measured by obtaining the absorbance with a 450 nm filter under a multifunctional microplate reader.
Background: In an ELISA, binding on a coated surface is turned into a signal by an enzyme label.
B1: the OD450 amounted to 3.

Turning to B3, the OD450 was 2.71.

Consider B4, for which the OD450 amounted to 2.55.

Take B5: the OD450 worked out at 2.12.

On to B6, for which the OD450 worked out at 2.86.

On to B7, for which the OD450 came to 2.59.

On to B8, for which the OD450 was 2.2.

In the case of B9, the OD450 is 2.49.

As for B10, the OD450 came out at 2.4.

Consider B11, for which the OD450 came out at 2.3.

For orientation: Kd means the concentration at which binding is half-saturated. A higher Kd goes with weaker binding. As usually defined, the koff is the first-order rate constant of dissociation. Low readings indicate slow dissociation, high ones fast dissociation. One may read the kon as the second-order rate constant of association.
